± gives the standard deviation of the averaged measurements.
Legend:
Experiment in all cases: protein stability index of tFT-peptide fusion (C-terminal peptide) (PSI (0-1 scale)); higher = more stable (slower turnover)
[1] = tested on: Saccharomyces cerevisiae; details: temperature: 30 C
Description: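 MPS profiling in S. cerevisiae of the yeast C-terminome library: the last 12 aa of each annotated ORF are fused to the C-terminus of a sfGFP-mCherry timer, after a GGGS linker. Cells are FACS-sorted into 8 mCherry/sfGFP bins and deep-sequenced. PSI runs from 0 (unstable) to 1 (stable); wild type and das1Δ backgrounds, two technical replicates each.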

[2] = tested on: Saccharomyces cerevisiae
Description: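 MPS profiling in S. cerevisiae of the tFT-X12 degron library: putative degron peptides plus stable controls, 12 aa, fused to the C-terminus of a sfGFP-mCherry timer. Cells are FACS-sorted into 8 mCherry/sfGFP bins and deep-sequenced. PSI runs from 0 (unstable) to 1 (stable). Backgrounds are wild type, das1Δ and doa10Δ at 30 °C, and wild type, das1Δ, cdc34-1 and cdc53-1 at 37 °C; 2-3 technical replicates each.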

[3] = tested on: Saccharomyces cerevisiae; details: genetic background: wild type; temperature: 30 C
[4] = genetic background: das1 deletion
[5] = genetic background: cdc34-1, temperature: 37 C
[6] = genetic background: cdc53-1, temperature: 37 C
[7] = genetic background: das1 deletion, temperature: 30 C
[8] = genetic background: das1 deletion, temperature: 37 C
[9] = genetic background: doa10 deletion, temperature: 30 C
[10] = genetic background: wild type, temperature: 30 C
[11] = genetic background: wild type, temperature: 37 C

Sequence | protein stability index [1, 4] | protein stability index ([1]; genetic background: wild type) | protein stability index [2, 5] | protein stability index [2, 6] | protein stability index [2, 7] | protein stability index [2, 8] | protein stability index [2, 9] | protein stability index [2, 10] | protein stability index [2, 11] | protein stability index [3]
MTKISILKPFLH [CDC6 C-terminal 12 aa] | 0.711 ± 0.0076 | 0.6156 ± 0.0052 |  |  |  |  |  |  |  | 
QNNNILNDMRVN [SPT23 C-terminal 12 aa] | 0.669 ± 0.011 | 0.689 ± 0.039 |  |  |  |  |  |  |  | 
QRVIKPSSALQF [ECM7 C-terminal 12 aa] | 0.706 ± 0.01 | 0.682 ± 0.035 |  |  |  |  |  |  |  | 
IYLLSDYEKDNI [CMR2 C-terminal 12 aa] | 0.709 ± 0.044 | 0.684 ± 0.0073 |  |  |  |  |  |  |  | 
SQAGLMSNEEVL [CCC2 C-terminal 12 aa] | 0.69664 ± 0.00011 | 0.699 ± 0.022 |  |  |  |  |  |  |  | 
LSLRSLQIMGRN [DSS4 C-terminal 12 aa] | 0.6993 ± 0.00084 | 0.726 ± 0.024 |  |  |  |  |  |  |  | 
ISSKSIPSVDDK [YIL071W-A C-terminal 12 aa] | 0.677 ± 0.025 | 0.706 ± 0.067 |  |  |  |  |  |  |  | 
RTTGHNLKQDFN [BUD4 C-terminal 12 aa] | 0.696 ± 0.022 | 0.653 ± 0.017 |  |  |  |  |  |  |  | 
LFCNYITETVEN [ASH1 C-terminal 12 aa] | 0.694 ± 0.0018 | 0.645 ± 0.095 |  |  |  |  |  |  |  | 
EALGKGGRGKRY [LSO1 C-terminal 12 aa] | 0.671 ± 0.013 | 0.678 ± 0.019 |  |  |  |  |  |  |  | 
LILQRLKTSLKI [GFD1 C-terminal 12 aa] | 0.617 ± 0.024 | 0.668 ± 0.03 |  |  |  |  |  |  |  | 
CTKHRFGYQNWI [ARP6 C-terminal 12 aa] | 0.692 ± 0.0049 | 0.692 ± 0.012 |  |  |  |  |  |  |  | 
LAKGGADVKPKK [RDL2 C-terminal 12 aa] | 0.7071 ± 0.0016 | 0.708 ± 0.033 |  |  |  |  |  |  |  | 
RVVDLVEHVAKA [TDH2 C-terminal 12 aa] | 0.705 ± 0.026 | 0.6748 ± 0.0044 |  |  |  |  |  |  |  | 
HGTAKALAAAKK [RPL29 C-terminal 12 aa] | 0.7098 ± 0.0054 | 0.6697 ± 0.0058 |  |  |  |  |  |  |  | 
FRCKFKERKVDG [REP1 C-terminal 12 aa] | 0.682 ± 0.0088 | 0.674 ± 0.015 |  |  |  |  |  |  |  | 
DLMISCLMNQET [MTR3 C-terminal 12 aa] | 0.712 ± 0.028 | 0.6732 ± 0.0053 |  |  |  |  |  |  |  | 
KARLTEEQHRHE [CWC21 C-terminal 12 aa] | 0.705 ± 0.0052 | 0.697 ± 0.019 |  |  |  |  |  |  |  | 
QFDSENVILSVI [TRS120 C-terminal 12 aa] | 0.716 ± 0.023 | 0.687 ± 0.024 |  |  |  |  |  |  |  | 
LVRFYGPLPPFP |  |  | 0.688 ± 0.047 | 0.7613 ± 0.0063 | 0.664 ± 0.029 | 0.757 ± 0.011 | 0.656 ± 0.016 | 0.66 ± 0.011 | 0.729 ± 0.011 | 0.7258 ± 0.0068
YVGILCTGILTV |  |  | 0.522 ± 0.024 | 0.54 ± 0.045 | 0.405 ± 0.026 | 0.564 ± 0.0085 | 0.38 ± 0.011 | 0.41 ± 0.017 | 0.549 ± 0.013 | 0.438 ± 0.0072
SGLVHVLILGAC |  |  | 0.4899 ± 0.0043 | 0.5165 ± 0.0038 | 0.347 ± 0.038 | 0.5529 ± 0.0051 | 0.313 ± 0.0048 | 0.338 ± 0.033 | 0.506 ± 0.011 | 0.45 ± 0.0019
RCRLYLNVVVLC |  |  | 0.269 ± 0.027 | 0.31 ± 0.0054 | 0.287 ± 0.047 | 0.413 ± 0.02 | 0.129 ± 0.01 | 0.122 ± 0.025 | 0.17 ± 0.0064 | 0.246 ± 0.07

Sequence | protein stability index [1, 4] | protein stability index ([1]; genetic background: wild type) | protein stability index [2, 5] | protein stability index [2, 6] | protein stability index [2, 7] | protein stability index [2, 8] | protein stability index [2, 9] | protein stability index [2, 10] | protein stability index [2, 11] | protein stability index [3]
VYVVLGTVYVTY |  |  | 0.195 ± 0.014 | 0.325 ± 0.013 | 0.194 ± 0.025 | 0.381 ± 0.0087 | 0.166 ± 0.0049 | 0.187 ± 0.031 | 0.362 ± 0.021 | 0.273 ± 0.025
FGEDFCHLLWCC |  |  | 0.623 ± 0.033 | 0.713 ± 0.021 | 0.583 ± 0.026 | 0.725 ± 0.011 | 0.347 ± 0.0051 | 0.374 ± 0.027 | 0.542 ± 0.018 | 0.442 ± 0.014
LVRGGLTNLFLF |  |  | 0.664 ± 0.046 | 0.78 ± 0.019 | 0.644 ± 0.024 | 0.7829 ± 0.0056 | 0.181 ± 0.0012 | 0.194 ± 0.032 | 0.47 ± 0.016 | 0.316 ± 0.032
LLFSVLLLGVGF |  |  | 0.425 ± 0.033 | 0.4723 ± 0.001 | 0.334 ± 0.023 | 0.5038 ± 0.0037 | 0.329 ± 0.024 | 0.324 ± 0.036 | 0.475 ± 0.0074 | 0.407 ± 0.035
GCLFASWPLAVC |  |  | 0.104 ± 0.026 | 0.109 ± 0.0041 | 0.214 ± 0.022 | 0.2564 ± 0.0019 | 0.166 ± 0.008 | 0.198 ± 0.016 | 0.209 ± 0.0077 | 0.303 ± 0.043
LFDYEAGEVMGG |  |  | 0.729 ± 0.042 | 0.747 ± 0.03 | 0.661 ± 0.023 | 0.783 ± 0.017 | 0.656 ± 0.025 | 0.689 ± 0.022 | 0.779 ± 0.023 | 0.717 ± 0.017
IGILVTAVPVFD |  |  | 0.507 ± 0.057 | 0.518 ± 0.0058 | 0.386 ± 0.042 | 0.5522 ± 0.0021 | 0.343 ± 0.013 | 0.382 ± 0.021 | 0.529 ± 0.011 | 0.451 ± 0.012
VCLVLVVVWWSG |  |  | 0.219 ± 0.0066 | 0.277 ± 0.028 | 0.222 ± 0.021 | 0.338 ± 0.0041 | 0.1895 ± 0.0012 | 0.201 ± 0.027 | 0.313 ± 0.012 | 0.292 ± 0.024
CMLPWPILLCPF |  |  | 0.322 ± 0.0044 | 0.329 ± 0.023 | 0.391 ± 0.024 | 0.469 ± 0.023 | 0.517 ± 0.022 | 0.389 ± 0.0084 | 0.456 ± 0.03 | 0.46 ± 0.0055
LPCPPSPASLPR |  |  | 0.676 ± 0.0092 | 0.7154 ± 0.0027 | 0.447 ± 0.013 | 0.634 ± 0.0069 | 0.437 ± 0.013 | 0.448 ± 0.0041 | 0.59 ± 0.019 | 0.498 ± 0.0076
RRIKNRRLKQVT |  |  | 0.63 ± 0.076 | 0.694 ± 0.011 | 0.666 ± 0.064 | 0.722 ± 0.0067 | 0.214 ± 0.0054 | 0.283 ± 0.026 | 0.472 ± 0.036 | 0.43 ± 0.033
EVFLARKRSMVV |  |  | 0.593 ± 0.043 | 0.677 ± 0.058 | 0.537 ± 0.036 | 0.67627 ± 0.00012 | 0.175 ± 0.019 | 0.214 ± 0.015 | 0.418 ± 0.0088 | 0.341 ± 0.03
RFCRVERAILLR |  |  | 0.334 ± 0.0068 | 0.251 ± 0.0061 | 0.33 ± 0.049 | 0.4436 ± 0.0035 | 0.622 ± 0.039 | 0.351 ± 0.026 | 0.41 ± 0.0053 | 0.481 ± 0.015
VPRGAALIFLCF |  |  | 0.574 ± 0.043 | 0.646 ± 0.025 | 0.53 ± 0.036 | 0.6215 ± 0.0013 | 0.449 ± 0.025 | 0.464 ± 0.023 | 0.582 ± 0.0063 | 0.517 ± 0.055
VVVLFGRLVVIC |  |  | 0.48 ± 0.01 | 0.611 ± 0.019 | 0.448 ± 0.033 | 0.598 ± 0.017 | 0.327 ± 0.0075 | 0.332 ± 0.029 | 0.5402 ± 0.003 | 0.431 ± 0.048
ICIFWLITGLWL |  |  | 0.465 ± 0.074 | 0.459 ± 0.026 | 0.336 ± 0.03 | 0.487 ± 0.019 | 0.304 ± 0.014 | 0.324 ± 0.013 | 0.4633 ± 0.0029 | 0.3884 ± 0.00079
VSTVCLDFSPFL |  |  | 0.692 ± 0.065 | 0.7662 ± 0.0043 | 0.65 ± 0.018 | 0.781 ± 0.017 | 0.668 ± 0.0078 | 0.66 ± 0.007 | 0.73714 ± 5.4e-05 | 0.755 ± 0.043
ILCYVWLVFSGF |  |  | 0.225 ± 0.0092 | 0.311 ± 0.019 | 0.223 ± 0.029 | 0.382 ± 0.01 | 0.194 ± 0.0036 | 0.204 ± 0.032 | 0.369 ± 0.025 | 0.373 ± 0.022
VAWFFFAYAFFM |  |  | 0.361 ± 0.058 | 0.451 ± 0.015 | 0.321 ± 0.043 | 0.488 ± 0.015 | 0.251 ± 0.0032 | 0.266 ± 0.026 | 0.407 ± 0.0093 | 0.321 ± 0.0039
RLRCRVLQWVWG |  |  | 0.617 ± 0.0085 | 0.693 ± 0.0084 | 0.557 ± 0.038 | 0.6562 ± 0.0012 | 0.352 ± 0.0078 | 0.385 ± 0.027 | 0.571 ± 0.0062 | 0.471 ± 0.035
RQILYYRERFIP |  |  | 0.577 ± 0.043 | 0.715 ± 0.014 | 0.634 ± 0.011 | 0.694 ± 0.027 | 0.169 ± 0.012 | 0.196 ± 0.022 | 0.355 ± 0.017 | 0.313 ± 0.0065
PWGVGLACLFLL |  |  | 0.469 ± 0.017 | 0.683 ± 0.016 | 0.585 ± 0.017 | 0.736 ± 0.022 | 0.0882 ± 0.025 | 0.096 ± 0.017 | 0.1134 ± 0.00036 | 0.126 ± 0.025

Source: the supplement of paper PMC10724198
